Measured values as given in publication PMC6041441, “WRKY1 acts as a key component improving resistance against Alternaria solani in wild tomato, Solanum arcanum Peralta”.
Changes are numbered by the printed parent chain.

T1: rSaWRKY1 (Solanum arcanum Peralta (accession not …, UniProt A0A1P8NTG4 1-410))
T1 sequence: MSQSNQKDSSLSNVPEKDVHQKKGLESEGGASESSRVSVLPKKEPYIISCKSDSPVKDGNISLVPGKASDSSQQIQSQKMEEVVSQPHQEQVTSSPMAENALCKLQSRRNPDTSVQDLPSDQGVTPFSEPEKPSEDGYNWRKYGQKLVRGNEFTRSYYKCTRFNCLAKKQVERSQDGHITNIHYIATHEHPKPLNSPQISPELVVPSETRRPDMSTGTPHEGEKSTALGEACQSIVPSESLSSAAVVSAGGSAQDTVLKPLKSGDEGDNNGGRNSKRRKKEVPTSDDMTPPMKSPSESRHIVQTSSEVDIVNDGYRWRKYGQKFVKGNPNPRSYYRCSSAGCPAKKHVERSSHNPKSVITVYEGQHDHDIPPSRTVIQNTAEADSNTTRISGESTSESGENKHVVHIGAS

B1: 4xW-box (dsDNA)
DNA 1: AAAAAATTGACCAAATTGACTCCAATTGACCAAATTGACCAAACACCACCTCCCACCTATAAAAAA
DNA 2: TTTTTTATAGGTGGGAGGTGGTGTTTGGTCAATTTGGTCAATTGGAGTCAATTTGGTCAATTTTTT
B2: mutated 4xW-box (4xmWbox) (dsDNA)
DNA 1: B1 DNA 1 with G9T, G18T, G28T, G37T
DNA 2: B1 DNA 2 with C30A, C39A, C49A, C58A

Target: T1, rSaWRKY1
Test: EMSA; 10 ug protein; 10x binding buffer: 0.10 mg/mL BSA, 1 mM DTT, 10 mM EDTA, 50% glycerol, 1 M KCl, 100 mM Tris-HCl pH 7.5 (stock as printed; working dilution not stated); 25 C, 30 min; 2% agarose gel, GelRed
Details: protein: recombinant; recombinant protein 62.6 kDa; label: none (GelRed stain); blunt

| Binder | binding result |
| --- | --- |
| B1 | binds |
| B2 | no binding |
